This note sets out measurements from article PMC3154423.

Usually Kd stands for the free concentration of one partner at which half of the binding sites on the other are occupied at equilibrium, for simple one-to-one binding. Low readings indicate tighter binding, high ones weaker binding.

Experiment in all cases: ITC
Background: ITC needs no label: the signal is the heat of the interaction.

Data set [1] addresses Jun bZIP K258A;Fos bZIP R157A (human;human, UniProt P05412;P01100 252-315;137-200, K258A|R157A).
Data set [2] has as its target Jun bZIP R259A;Fos bZIP R158A (human;human, UniProt P05412;P01100 252-315;137-200, R259A|R158A).
Data set [3] addresses Jun bZIP R259A;Fos bZIP R157A (human;human, UniProt P05412;P01100 252-315;137-200, R259A|R157A).
For data set [4], the target named is Jun bZIP K268A;Fos bZIP R143A (human;human, UniProt P05412;P01100 252-315;137-200, K268A|R143A).
In data set [5] the target is Jun bZIP K273A;Fos bZIP R146A (human;human, UniProt P05412;P01100 252-315;137-200, K273A|R146A).
Jun bZIP K273A;Fos bZIP R146A, sequence (P05412 252-315 K273A, chain 1 of 2): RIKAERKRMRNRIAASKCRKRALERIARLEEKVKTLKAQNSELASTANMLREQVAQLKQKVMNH
Jun bZIP K273A;Fos bZIP R146A, sequence (P01100 137-200 R146A, chain 2 of 2): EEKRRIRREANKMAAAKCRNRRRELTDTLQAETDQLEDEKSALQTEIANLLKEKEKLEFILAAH

Jun bZIP K258A;Fos bZIP R157A, sequence (P05412 252-315 K258A, chain 1 of 2): as the sequence (P05412 252-315 K273A, chain 1 of 2) above, with K7A, A22K counted along it
Jun bZIP K258A;Fos bZIP R157A, sequence (P01100 137-200 R157A, chain 2 of 2): as the sequence (P01100 137-200 R146A, chain 2 of 2) above, with A10R, R21A counted along it
Jun bZIP R259A;Fos bZIP R157A, sequence (P05412 252-315 R259A, chain 1 of 2): as the sequence (P05412 252-315 K273A, chain 1 of 2) above, with R8A, A22K counted along it
Jun bZIP R259A;Fos bZIP R157A, sequence (P01100 137-200 R157A, chain 2 of 2): as the sequence (P01100 137-200 R146A, chain 2 of 2) above, with A10R, R21A counted along it
Jun bZIP R259A;Fos bZIP R158A, sequence (P05412 252-315 R259A, chain 1 of 2): as the sequence (P05412 252-315 K273A, chain 1 of 2) above, with R8A, A22K counted along it
Jun bZIP R259A;Fos bZIP R158A, sequence (P01100 137-200 R158A, chain 2 of 2): as the sequence (P01100 137-200 R146A, chain 2 of 2) above, with A10R, R22A counted along it
Jun bZIP K268A;Fos bZIP R143A, sequence (P05412 252-315 K268A, chain 1 of 2): as the sequence (P05412 252-315 K273A, chain 1 of 2) above, with K17A, A22K counted along it
Jun bZIP K268A;Fos bZIP R143A, sequence (P01100 137-200 R143A, chain 2 of 2): as the sequence (P01100 137-200 R146A, chain 2 of 2) above, with R7A, A10R counted along it

B1: TRE duplex 15-mer (dsDNA)
DNA 1: CGCGTGACTCACCCC
DNA 2: GGGGTGAGTCACGCG
As to B1, the Kd turned out to be 1500 ± 80 nM in data set [1]; 2160 ± 130 nM in data set [2]; 3050 ± 120 nM in data set [3]; 720 ± 10 nM in data set [4]; 680 ± 10 nM in data set [5].
